# B1: Ephrin type-A receptor 2 (Mus musculus), Q03145 (parent)
# chain: MELRAVGFCLALLWGCALAAAAAQGKEVVLLDFAAMKGELGWLTHPYGKGWDLMQNIMDDMPIYMYSVCNVVSGDQDNWLRTNWVYREEAERIFIELKFTVRDCNSFPGGASSCKETFNLYYAESDVDYGTNFQKRQFTKIDTIAPDEITVSSDFEARNVKLNVEERMVGPLTRKGFYLAFQDIGACVALLSVRVYYKKCPEMLQSLARFPETIAVAVSDTQPLATVAGTCVDHAVVPYGGEGPLMHCTVDGEWLVPIGQCLCQEGYEKVEDACRACSPGFFKSEASESPCLECPEHTLPSTEGATSCQCEEGYFRAPEDPLSMSCTRPPSAPNYLTAIGMGAKVELRWTAPKDTGGRQDIVYSVTCEQCWPESGECGPCEASVRYSEPPHALTRTSVTVSDLEPHMNYTFAVEARNGVSGLVTSRSFRTASVSINQTEPPKVRLEDRSTTSLSVTWSIPVSQQSRVWKYEVTYRKKGDANSYNVRRTEGFSVTLDDLAPDTTYLVQVQALTQEGQGAGSKVHEFQTLSTEGSANMAVIGGVAVGVVLLLVLAGVGLFIHRRRRNLRARQSSEDVRFSKSEQLKPLKTYVDPHTYEDPNQAVLKFTTEIHPSCVARQKVIGAGEFGEVYKGTLKASSGKKEIPVAIKTLKAGYTEKQRVDFLSEASIMGQFSHHNIIRLEGVVSKYKPMMIITEYMENGALDKFLREKDGEFSVLQLVGMLRGIASGMKYLANMNYVHRDLAARNILVNSNLVCKVSDFGLSRVLEDDPEATYTTSGGKIPIRWTAPEAISYRKFTSASDVWSYGIVMWEVMTYGERPYWELSNHEVMKAINDGFRLPTPMDCPSAIYQLMMQCWQQERSRRPKFADIVSILDKLIRAPDSLKTLADFDPRVSIRLPSTSGSEGVPFRTVSEWLESIKMQQYTEHFMVAGYTAIEKVVQMSNEDIKRIGVRLPGHQKRIAYSLLGLKDQVNTVGIPI
# Variants of: B1
# Settings: with epha4_mouse Epha4, Q03137
# Sequence of epha4_mouse Epha4, Q03137 (Q03137 whole entry): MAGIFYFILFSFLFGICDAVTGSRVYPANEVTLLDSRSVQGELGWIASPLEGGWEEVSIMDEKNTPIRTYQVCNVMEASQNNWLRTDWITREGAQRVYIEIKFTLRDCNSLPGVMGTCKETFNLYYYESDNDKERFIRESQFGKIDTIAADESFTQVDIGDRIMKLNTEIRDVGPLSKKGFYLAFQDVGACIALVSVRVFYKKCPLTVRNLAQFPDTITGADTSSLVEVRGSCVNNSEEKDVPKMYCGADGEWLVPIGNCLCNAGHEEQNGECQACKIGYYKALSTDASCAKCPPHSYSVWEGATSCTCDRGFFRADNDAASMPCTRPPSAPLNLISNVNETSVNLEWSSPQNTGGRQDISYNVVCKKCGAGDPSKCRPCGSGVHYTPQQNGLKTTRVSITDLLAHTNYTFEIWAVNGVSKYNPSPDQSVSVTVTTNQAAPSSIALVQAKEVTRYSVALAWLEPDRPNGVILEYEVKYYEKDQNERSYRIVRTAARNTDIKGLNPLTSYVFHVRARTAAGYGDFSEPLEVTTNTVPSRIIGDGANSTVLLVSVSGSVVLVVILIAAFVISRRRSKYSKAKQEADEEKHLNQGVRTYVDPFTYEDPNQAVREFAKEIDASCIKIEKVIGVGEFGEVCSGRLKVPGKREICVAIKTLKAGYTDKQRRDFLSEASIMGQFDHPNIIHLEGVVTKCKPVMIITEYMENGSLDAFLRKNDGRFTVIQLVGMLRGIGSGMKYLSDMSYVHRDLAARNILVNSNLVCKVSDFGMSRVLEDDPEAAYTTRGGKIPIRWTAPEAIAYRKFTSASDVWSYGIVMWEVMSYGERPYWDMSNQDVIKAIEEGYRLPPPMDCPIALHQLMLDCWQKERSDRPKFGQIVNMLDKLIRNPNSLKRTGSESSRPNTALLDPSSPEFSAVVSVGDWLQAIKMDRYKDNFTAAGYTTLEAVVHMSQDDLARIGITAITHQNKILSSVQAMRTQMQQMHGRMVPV
row,Variant,effect of a mutation on the interaction
1,Y589F,disrupting interaction

# Variants of: B1
# Settings: with epha4_mouse Epha4, Q03137
# Remark: another data set of the same source
row,Variant,effect of a mutation on the interaction
1,Y595F,disrupting interaction
